# Patent publication US20090098124A1 (MacroGenics, published 2009)
# pKd: −log10 of the molar value. Where two headings read alike, the source gives them in different places.
# Columns and labels:
# [1] = target: soluble monomeric FcγRIIIA (extracellular region joined to linker-AVITAG), allele not stated (human) (UniProt P08637); test: SPR
# [2] = target: soluble monomeric FcγRIIIA (extracellular region joined to linker-AVITAG), allele not stated (human) (UniProt P08637); test: ELISA
# [3] = target: soluble dimeric FcγRIIB (extracellular domain fused to hinge-CH2-CH3 of human IgG2) (human) (UniProt P31994); test: ELISA
# [4] = target: soluble monomeric FcγRIIIA (extracellular region joined to linker-AVITAG), allele not stated (human) (UniProt P08637); test: SPR; remark: listed apart in the source
# [5] = target: soluble dimeric FcγRIIB (extracellular domain fused to hinge-CH2-CH3 of human IgG2) (human) (UniProt P31994); test: SPR
# [6] = target: soluble dimeric FcγRIIB (extracellular domain fused to hinge-CH2-CH3 of human IgG2) (human) (UniProt P31994); test: SPR; remark: listed apart in the source
# [7] = target: soluble FcγRIIIA 158V (human) (UniProt P08637); test: SPR (BIAcore) steady-state analysis, ch4D5 antibody captured on immobilised ErbB2/Fc-aglycosyl chimera, soluble FcγRIIIA V158 (printed 3aV150) injected at 0.1-[…]
# [8] = target: soluble FcγRIIIA 158F (human) (UniProt P08637); test: SPR (BIAcore) steady-state analysis, ch4D5 antibody captured on immobilised ErbB2/Fc-aglycosyl chimera, soluble FcγRIIIA F158 (printed 3aF150) injected at 0.2-[…]
# soluble FcγRIIIA 158F (human), sequence (P08637 17-208): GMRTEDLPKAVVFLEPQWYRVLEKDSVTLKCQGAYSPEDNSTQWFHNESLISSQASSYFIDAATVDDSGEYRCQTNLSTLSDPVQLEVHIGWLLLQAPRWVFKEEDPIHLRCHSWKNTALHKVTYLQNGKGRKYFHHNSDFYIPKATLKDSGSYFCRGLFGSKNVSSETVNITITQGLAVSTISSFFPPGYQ
# soluble dimeric FcγRIIB (extracellular domain fused to hinge-CH2-CH3 of human IgG2) (human), sequence (P31994 43-217): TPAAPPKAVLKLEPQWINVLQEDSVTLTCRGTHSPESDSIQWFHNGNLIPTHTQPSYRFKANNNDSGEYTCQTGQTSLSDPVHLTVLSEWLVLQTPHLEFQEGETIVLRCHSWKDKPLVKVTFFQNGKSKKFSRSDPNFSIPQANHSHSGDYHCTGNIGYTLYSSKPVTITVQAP
# soluble monomeric FcγRIIIA (extracellular region joined to linker-AVITAG), allele not stated (human), sequence (P08637 17-208): as the sequence (P08637 17-208) above
Substance,pKd [1],ELISA IIIA binding [2],ELISA OD [2],ELISA OD [3],pKd [4],pKd [5],pKd [6],pKd [7],pKd [8]
ch4-4-20 wild type (antibody),6.50,1 fold,0.5 OD,0.4 OD,6.70,7.03,7.21,–,–
ch4D5 wild type (IgG1) (antibody),–,–,–,–,–,–,–,4.44,5.81
